Test [1] deals with T1, human PTH/PTHrP receptor (Homo sapiens, UniProt Q03431).
T1 sequence (Q03431 27-593): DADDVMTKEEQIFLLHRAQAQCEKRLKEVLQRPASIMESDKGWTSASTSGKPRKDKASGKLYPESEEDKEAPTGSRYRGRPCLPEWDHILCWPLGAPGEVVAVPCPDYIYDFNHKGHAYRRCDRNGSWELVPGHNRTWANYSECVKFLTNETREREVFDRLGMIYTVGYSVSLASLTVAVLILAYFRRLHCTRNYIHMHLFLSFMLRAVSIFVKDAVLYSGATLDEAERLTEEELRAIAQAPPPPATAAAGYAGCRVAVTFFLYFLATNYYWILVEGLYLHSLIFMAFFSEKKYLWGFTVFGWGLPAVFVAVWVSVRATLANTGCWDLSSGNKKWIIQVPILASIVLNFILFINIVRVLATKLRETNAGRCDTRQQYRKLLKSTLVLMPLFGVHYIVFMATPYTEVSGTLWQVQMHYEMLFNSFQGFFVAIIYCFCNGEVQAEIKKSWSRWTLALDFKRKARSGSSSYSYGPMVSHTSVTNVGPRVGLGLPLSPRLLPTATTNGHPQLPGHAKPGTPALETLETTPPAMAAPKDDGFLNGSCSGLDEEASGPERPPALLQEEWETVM
Description: Cellular phosphate uptake in LLC-PK1 cells expressing human PTHR. In kind it is cell-based. Also noted: transfected with a full-length human PTH/PTHrP receptor cDNA; expressed in transfected cells. The note with it: HKRK B28 and HKRK B7 cells; peptides 1000 nM, 6 hr. The protocol: FIG. 8. Regulation of phosphate uptake by PTH in HKRK B7 and HKRK B28 cells. […] Results are expressed as percentage of basal, and each bar represents the mean±SEM of a representative experiment performed in triplicate. Similar results were obtained from at least 5 individual experiments. Cells were seeded into 24-well plates at a density of 2.5×10^5 cells/well and cultured for a further 2 days before study. Twenty four hours before assay, cells were refed with 0.5 ml of DMEM containing 0.1% BSA. The next day, cells were refed with serum-free medium (DMEM+0.1% BSA) containing drugs or peptides, and the incubations were continued at 37° C. under 5% CO2 in air for another 6 hr. Cells then were washed with prewarmed Buffer B without BSA and Na2HPO4 and then were incubated at 37° C. for 5 min in 0.25 ml of the same buffer containing [^32P]orthophosphate (4 uCi/ml) and 0.1 mM Na2HPO4. Phosphate uptake was arrested by adding 1 ml of ice-cold sodium-free “stop buffer” [10 mM HEPES (pH 7.4), 140 mM choline chloride, and 5 mM sodium arsenate], followed by two further washes with same buffer. The drained cell layer then was solubilized in 0.5 ml of Lysis Buffer, and cell-associated radioactivity was determined by Cerenkov counting, as previously described (Guo, J., et al., Endocrinology 136:3884-3891 (1995)).

Test [2] concerns the target T1, human PTH/PTHrP receptor. Description: Urokinase-type plasminogen activator (u-PA) secretion bioassay in LLC-PK1 cells expressing human PTHR. The note with it: for secreted u-PA: peptide 1000 nM, 16 hr, mean±SEM.
Description: Cells were seeded into 96-well plates at a density of 6×10^4 cells/well and used the following day. The cells were washed once with 0.2 ml and then refed with 0.1 ml of prewarmed DMEM containing 0.05% BSA. After adding each stimulator, plates were returned to the incubator at 37° C. for 16 h. Conditioned medium (5 ul) then was transferred from each well to a clean microplate. […] Activity was expressed in Ploug units/well, using purified human urokinase (Calbiochem) as a standard.
Cells were incubated with the indicated peptides (1000 nM) for 16 hr before measurement of secreted u-PA present in the medium, which was expressed as a percentage of the activity measured in vehicle-treated controls. Values shown are means±SEM of triplicate determinations.
Test [3] concerns the target T1, human PTH/PTHrP receptor. In words: Cellular cAMP accumulation in LLC-PK1 cells expressing human PTHR. On the set-up: transfected with a full-length human PTH/PTHrP receptor cDNA; expressed in transfected cells. The note with it: HKRK B28 cells; for activation of AC (in words): similar in HKRK B7. In kind it is cell-based. The protocol:
Cells were seeded into 24-well plates at a density of 2.5×10^5 cells/well and cultured for a further 2 days before study. The cells were rinsed once with 0.5 ml of ice-cold Buffer B [10 mM HEPES (pH 7.4), 130 mM NaCl, 5 mM KCl, 1.2 mM CaCl2, 1 mM MgCl2, 1.2 mM Na2HPO^4 5 mM glucose, and 0.1% heat-inactivated BSA] supplemented with 1 mM isobtylmethylxanthine (IBMX), and placed on ice. Treatments were added to each well in 0.25 ml of IBMX-supplemented Buffer B, after which the plates were incubated at 37° C. for 15 min. The buffer then was rapidly aspirated, the plates were rapidly transferred onto liquid nitrogen, and the frozen monolayers were subsequently thawed directly into 0.5 ml of 50 mM HCl. The extracted cAMP then was measured using a commercial RIA kit (Dupont-New England Nuclear, Boston, Mass.). Results were expressed as fold-basal, where basal levels ranged between 38 and 128 pmol/mg protein/15 min. The basal level of cAMP accumulation in native LLC-PK1 cells was not consistently altered in subclones that expressed wild type PTH/PTHrp receptors.
Maximal PTH-dependent cAMP accumulation was assessed in the human PTHR-transfected LLC-PK1 subclones following incubation for 15 min with a high concentration (1000 nM) of hPTH(1-34) (Table 1). As reported previously for LLC-PK1 cells that stably expressed rat PTHRs (Guo, J., et al., Endocrinology 136:3884-3891 (1995)), the maximal adenylyl cyclase response was relatively independent of the surface density of human PTHRs above a relatively low threshold (relative to that required for PLC activation—see below). In the case of the human PTHR, however, this threshold for saturation of maximal AC activation appeared to lie between 120,000 and 280,000 (Table 1), which is at least 6 to 10-fold higher than that previously observed for the rat PTHR (Guo, J., et al., Endocrinology 136:3884-3891 (1995)).
(Changes in cAMP serve as a functional read-out for many G protein-coupled receptors.)

For test [4], the target named is T1, human PTH/PTHrP receptor. In words: IP3 production (PLC activation) in LLC-PK1 cells expressing human PTHR. Type of test: cell-based. Also noted: transfected with a full-length human PTH/PTHrP receptor cDNA; expressed in transfected cells. The conditions noted are these: for activation of PLC (in words): 1000 nM, HKRK B28 at 4 min and HKRK B7 at 30 min; for formation of IP3 (activation of phospholipase-C): peptide 1000 nM, mean±SEM. The protocol:
Cells were seeded into 24-well plates at a density of 2.5×10^5 cells/well and cultured for a further 2 days before study. The cells were labeled at 37° C. for 16 h before assay with 3 uCi/ml of [^3H]myo-inositol in assay medium (serum- and inositol-free DMEM (GIBCO-BRL, Grand Island, N.Y.) supplemented with 0.1% BSA). After washing the cells with prewarmed assay medium containing 30 mM LiCl, they were incubated with 0.25 ml of assay medium containing 30 mM LiCl and stimulators (or vehicle) at 37° C. for various intervals(1-30 min). IP3 formation was arrested by aspiration and immediate addition of 0.5 ml of ice-cold 5% TCA. The acid extracts then were extracted twice with two volumes of water-saturated ether and adjusted to pH 7.4 with concentrated NaOH and Tris base (final concentration=10 mM) prior to chromatography on AG 1×8 anion-exchange columns (Bio-Rad, Richmond, Calif.), as previously described (Guo, J., et al., Endocrinology 136:3884-3891 (1995)). After eluting other fractions (free [^3H]myo-inositol, glycerophosphate inositol, IP1, and IP2), IP3 fractions were collected and their content of radioactivity was determined by liquid scintillation spectrometry (Beckman, model LS 6000IC).
HKRK B7 cells and HKRK B28 cells, previously loaded with [^3H]myo-inositol, were incubated with each peptide (1000 nM) for 30 min or 4 min, respectively. The formation of IP3 is expressed as a percentage of the amount measured in vehicle-treated controls. Values shown are means±SEM of triplicate determinations.

The target in test [5] is T1, human PTH/PTHrP receptor. Description: Cytosolic free calcium (fura-2) in LLC-PK1 cells expressing human PTHR. The conditions noted are these: 100 nM peptide; HKRK B7 cells.
Description: Cytosolic free calcium was measured in fura 2AM-loaded confluent monolayers of cells.
Cytosolic free calcium was measured by dual fluorescence in cells loaded with the Ca^2+-sensitive intracellular probe fura-2. Cells were seeded onto glass coverslips at a density of 40,000-600,000/cm^2 and incubated for 2 days as described above. Coverslips were washed twice with PBS before loading in phosphate-free Buffer B containing 4 uM of fura-2/AM (Molecular Probes, Eugene, Oreg.) for 30 min at room temperature (22° C.). After washing twice with fura-free Buffer B, the coverslips were mounted in a cuvette containing 2 ml of phosphate-free Buffer B at 37° C. and the emission at 510 nm in response to alternating excitation at 340 and 380 nm was monitored using a ratiometric PTI Deltascan fluorescence spectrometer with excitation and emission bandwidths of 2 nm. After achieving a stable baseline, agonists were introduced by exchange into 2 ml of fresh buffer to which 10-20 ul of concentrated agonist stock (or vehicle alone) had been added. Peptide stocks were prepared in 0.1% trifluoroacetic acid, ionomycin and phorbol esters were dissolved in dimethyl sulfoxide and all other additives were prepared in water. Maximum and minimum fluorescence signals were obtained by exposure to modified buffers containing 1 uM ionomycin plus 20 mM calcium or 2 mM EGTA in the nominal absence of calcium, respectively, and autofluorescence was estimated from signals obtained in the presence of ionomycin plus 2.5 mM MnCl2.
Where [6] appears, read: HKRK B7 cells, 30 min stimulation.
Setting [7] is: HKRK B28 cells, 4 min stimulation.

Where no end group is shown, it is not given here.

As to hPTHrp(1-36), the “maximal activation of phosphate uptake (in words)” value (“maximal activation” below) in the test with human PTH/PTHrP receptor [1] is listed as “comparable maximal activation of phosphate uptake”. Besides, the “secreted u-PA” value with human PTH/PTHrP receptor [2] (HKRK B7 cells) was 88 ± 5 percentage of the activity measured in vehicle-treated controls; with human PTH/PTHrP receptor [2] (HKRK B28 cells), 97 ± 9 percentage of the activity measured in vehicle-treated controls. Moreover, in the test with human PTH/PTHrP receptor [3], the “activation of AC (in words)” value is reported as “indistinguishable from that to hPTH(1-34)”. In the test with human PTH/PTHrP receptor [4], the “activation of PLC (in words)” value is listed as “stimulated PLC equivalently to hPTH(1-34)”. The “formation of IP3 (activation of phospholipase-C)” value (“formation of IP3” below) with human PTH/PTHrP receptor [4] (setting [6]) is 93 ± 6 percentage of vehicle-treated; with human PTH/PTHrP receptor [4] (setting [7]) it was 160 ± 9 percentage of vehicle-treated.
For the substance “hPTH(7-34) (LMHNLGKHLNSMERVEWLRKKLQDVHNF; Parathyroid hormone; UniProt P01270 38-65, looked up, fragment) [amino-terminally truncated human PTH analog]”, in the test with human PTH/PTHrP receptor [5], the “cytosolic free calcium transients” value is reported as “neither hPTH(3-34) nor hPTH(7-34) (100 nM) induced this response”. For the same substance, in the test with human PTH/PTHrP receptor [1], the “maximal activation” value is “inactive”. Moreover, in the test with human PTH/PTHrP receptor [2] (HKRK B7 and HKRK B28 cells), the “u-PA bioassay activity (in words)” value was “inactive”. For the same substance, the “secreted u-PA” value is 1 ± 1 percentage of the activity measured in vehicle-treated controls with human PTH/PTHrP receptor [2] (HKRK B7 cells) and 0 ± 2 percentage of the activity measured in vehicle-treated controls in the test with human PTH/PTHrP receptor [2] (HKRK B28 cells). The “activation of AC (in words)” value in the test with human PTH/PTHrP receptor [3] is given as “failed to activate AC at all concentrations tested”. Moreover, the “activation of PLC (in words)” value with human PTH/PTHrP receptor [4] was “neither hPTH(3-34) nor hPTH(7-34) activated PLC significantly”. For the same substance, the “formation of IP3” value in the test with human PTH/PTHrP receptor [4] (setting [6]) was 122 ± 7 percentage of vehicle-treated; with human PTH/PTHrP receptor [4] (setting [7]), 92 ± 10 percentage of vehicle-treated.
On to “hPTH(3-34) (SEIQLMHNLGKHLNSMERVEWLRKKLQDVHNF-NH2; UniProt P01270 34-65, looked up, fragment) [amino-terminally truncated human PTH analog]”, for which the “cytosolic free calcium transients” value with human PTH/PTHrP receptor [5] was “neither hPTH(3-34) nor hPTH(7-34) (100 nM) induced this response”. For the same substance, in the test with human PTH/PTHrP receptor [1], the “maximal activation” value is “inactive”. Also, the “u-PA bioassay activity, % of maximal response to hPTH(1-34)” value with human PTH/PTHrP receptor [2] (HKRK B7 and HKRK B28 cells) is given as 50-60%. The “secreted u-PA” value with human PTH/PTHrP receptor [2] (HKRK B7 cells) was 57 ± 3 percentage of the activity measured in vehicle-treated controls; with human PTH/PTHrP receptor [2] (HKRK B28 cells), 50 ± 1 percentage of the activity measured in vehicle-treated controls. Besides, in the test with human PTH/PTHrP receptor [3], the “concentrations at which AC was stimulated significantly” value was ≥ 10 nM. Also, the “cAMP response as % of the maximal response to hPTH(1-34)” value with human PTH/PTHrP receptor [3] (1000 nM peptide) was 16%. In the test with human PTH/PTHrP receptor [4], the “activation of PLC (in words)” value is reported as “neither hPTH(3-34) nor hPTH(7-34) activated PLC significantly”. Besides, the figures for the “formation of IP3” value in the test with human PTH/PTHrP receptor [4] (setting [6]) and with human PTH/PTHrP receptor [4] (setting [7]) were 103 ± 1 percentage of vehicle-treated and 85 ± 9 percentage of vehicle-treated, respectively.

Values taken from patent US7033773B1, “Screening assays for G protein coupled receptor agonists and antagonists” (The General Hospital Corporation, priority 1997, dated 2006).
